For one experiment, the target named is T1, integrin αvβ5 (UniProt P06756 31-1048; P18084 24-799, limits assumed).
T1 construct: whole, on cells; Endogenous on MCF-7 and THP-1 cells (human cell lines); also called integrin-receptor
The experiment in a line: flow cytometry, fluorescein labeled protein on MCF-7 and THP-1 cells.

The next experiment deals with T2, integrin αvβ3 (UniProt P06756 31-1048; P05106 27-788, limits assumed).
T2 construct: whole, on cells; Endogenous on MCF-7 and THP-1 cells (human cell lines); also called integrin-receptor
T2 sequence (P06756 31-1048 limits assumed, chain 1 of 2): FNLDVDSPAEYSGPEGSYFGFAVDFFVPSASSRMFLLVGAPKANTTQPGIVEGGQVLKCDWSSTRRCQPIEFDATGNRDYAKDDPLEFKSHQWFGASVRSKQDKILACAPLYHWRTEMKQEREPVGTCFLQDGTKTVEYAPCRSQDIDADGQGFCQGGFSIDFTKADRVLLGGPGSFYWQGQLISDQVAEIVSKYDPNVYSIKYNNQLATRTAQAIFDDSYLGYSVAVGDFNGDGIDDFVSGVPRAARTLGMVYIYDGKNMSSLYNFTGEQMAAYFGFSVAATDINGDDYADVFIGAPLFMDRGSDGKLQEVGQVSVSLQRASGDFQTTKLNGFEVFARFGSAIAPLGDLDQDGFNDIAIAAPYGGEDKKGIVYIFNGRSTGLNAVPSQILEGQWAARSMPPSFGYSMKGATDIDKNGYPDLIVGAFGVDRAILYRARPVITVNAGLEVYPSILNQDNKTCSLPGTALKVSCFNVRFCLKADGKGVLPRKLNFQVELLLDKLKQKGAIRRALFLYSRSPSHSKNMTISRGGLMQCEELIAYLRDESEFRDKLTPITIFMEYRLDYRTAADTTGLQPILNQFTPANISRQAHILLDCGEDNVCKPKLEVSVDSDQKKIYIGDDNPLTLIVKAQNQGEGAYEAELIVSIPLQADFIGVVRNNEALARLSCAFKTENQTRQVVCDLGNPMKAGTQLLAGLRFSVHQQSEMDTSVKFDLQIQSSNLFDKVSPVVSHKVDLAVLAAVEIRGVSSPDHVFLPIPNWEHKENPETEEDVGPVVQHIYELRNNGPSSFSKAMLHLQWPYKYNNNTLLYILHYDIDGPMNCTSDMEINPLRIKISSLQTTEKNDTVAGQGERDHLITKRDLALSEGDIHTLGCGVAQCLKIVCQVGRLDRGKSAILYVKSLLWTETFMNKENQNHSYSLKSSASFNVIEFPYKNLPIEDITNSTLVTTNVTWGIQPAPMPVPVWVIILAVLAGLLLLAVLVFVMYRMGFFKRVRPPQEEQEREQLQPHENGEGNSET
T2 sequence (P05106 27-788 limits assumed, chain 2 of 2): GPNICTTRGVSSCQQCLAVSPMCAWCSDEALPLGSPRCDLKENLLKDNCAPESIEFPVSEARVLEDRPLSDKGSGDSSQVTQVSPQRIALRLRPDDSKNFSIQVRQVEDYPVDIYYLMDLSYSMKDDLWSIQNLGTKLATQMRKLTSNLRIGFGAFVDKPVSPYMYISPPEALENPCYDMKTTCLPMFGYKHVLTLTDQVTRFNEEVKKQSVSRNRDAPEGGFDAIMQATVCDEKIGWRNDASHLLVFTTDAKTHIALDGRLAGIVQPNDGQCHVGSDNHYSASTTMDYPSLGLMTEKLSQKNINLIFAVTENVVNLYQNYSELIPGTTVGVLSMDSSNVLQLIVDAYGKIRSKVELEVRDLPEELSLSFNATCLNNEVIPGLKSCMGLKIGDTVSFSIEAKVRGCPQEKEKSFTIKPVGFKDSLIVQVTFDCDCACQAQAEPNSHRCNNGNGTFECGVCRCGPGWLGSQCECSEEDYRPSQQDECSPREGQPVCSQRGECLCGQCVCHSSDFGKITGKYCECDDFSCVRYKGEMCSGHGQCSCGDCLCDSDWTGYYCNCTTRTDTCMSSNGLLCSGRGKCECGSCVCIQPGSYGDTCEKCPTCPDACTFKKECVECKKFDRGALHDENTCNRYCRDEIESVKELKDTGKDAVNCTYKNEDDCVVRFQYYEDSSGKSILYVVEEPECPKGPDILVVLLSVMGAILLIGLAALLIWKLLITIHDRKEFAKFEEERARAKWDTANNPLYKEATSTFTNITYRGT
Described as above.

T1 sequence (P06756 31-1048 limits assumed, chain 1 of 2): as the sequence (P06756 31-1048 limits assumed, chain 1 of 2) above
T1 sequence (P18084 24-799 limits assumed, chain 2 of 2): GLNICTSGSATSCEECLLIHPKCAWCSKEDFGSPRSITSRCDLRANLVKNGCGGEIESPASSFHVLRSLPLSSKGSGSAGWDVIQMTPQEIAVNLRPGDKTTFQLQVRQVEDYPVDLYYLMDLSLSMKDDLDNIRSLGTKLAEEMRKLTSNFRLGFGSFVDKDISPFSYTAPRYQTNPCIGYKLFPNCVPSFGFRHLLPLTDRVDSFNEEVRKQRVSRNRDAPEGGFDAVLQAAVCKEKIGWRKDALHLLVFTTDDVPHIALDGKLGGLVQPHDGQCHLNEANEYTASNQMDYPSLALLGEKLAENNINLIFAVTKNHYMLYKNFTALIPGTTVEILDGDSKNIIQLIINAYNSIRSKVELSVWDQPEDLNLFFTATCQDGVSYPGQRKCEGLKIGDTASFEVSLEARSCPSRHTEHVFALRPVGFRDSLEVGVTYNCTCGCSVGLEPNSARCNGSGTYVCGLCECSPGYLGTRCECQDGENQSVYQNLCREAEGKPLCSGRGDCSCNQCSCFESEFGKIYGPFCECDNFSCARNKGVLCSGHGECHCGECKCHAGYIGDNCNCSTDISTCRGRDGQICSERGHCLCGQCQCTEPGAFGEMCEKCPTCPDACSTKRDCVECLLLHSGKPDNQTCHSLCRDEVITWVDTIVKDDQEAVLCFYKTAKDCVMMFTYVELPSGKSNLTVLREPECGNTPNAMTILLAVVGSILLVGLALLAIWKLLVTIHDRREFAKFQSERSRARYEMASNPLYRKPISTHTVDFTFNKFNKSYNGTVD

B1: annexin A5-T7D variant (other)
chain: AQVLRGDVTDFPGFDERADAETLRKAMKGLGTDEESILTLLTSRSNAQRQEISAAFKTLFGRDLLDDLKSELTGKFEKLIVALMKPSRLYDAYELKHALKGAGTNEKVLTEIIASRTPEELRAIKQVYEEEYGSSLEDDVVGDTSGYYQRMLVVLLQANRDPDAGIDEAQVEQDAQALFQAGELKWGTDEEKFITIFGTRSVSHLRKVFDKYMTISGFQIEETIDRETSGNLEQLLLAVVKSIRSIPAYLAETLYYAMKGAGTDDHTLIRVMVSRSEIDLFNIRKEFRKNFATSLYSMIKGDTSGDYKKALLLLCGEDD
modifications: fluorescein (FITC) label, site not stated
notes: Made in E. coli and purified; also called T7D anxA5; RGD-anxA5
Consider B1, for which the binding result with integrin αvβ5 and with integrin αvβ3 was “binds” each time.

The values above are taken from patent US20120094895A1 (MOSAMEDIX B V, published 2012).
